Laboratory results as given in article PMC5037460, “The structure of a furin-antibody complex explains non-competitive inhibition by steric exclusion of substrate conformers” (Scientific Reports, 2016).

Key:
human furin, wild type = biological target: T1, human furin, wild type (Homo sapiens); assay: SEC; analytical gel permeation chromatography, Superdex 200 5/150 GL, 10 mM Hepes, pH 7.5, 100 mM NaCl, 1 mM CaCl2; proteins premixed at equimolar ratio, ~23 μM each; 0.2 ml/min; peak fractions by SDS-PAGE; details: both partners purified
T1 construct: furin, human; also called Furin^WT; source: purified
T1 chain: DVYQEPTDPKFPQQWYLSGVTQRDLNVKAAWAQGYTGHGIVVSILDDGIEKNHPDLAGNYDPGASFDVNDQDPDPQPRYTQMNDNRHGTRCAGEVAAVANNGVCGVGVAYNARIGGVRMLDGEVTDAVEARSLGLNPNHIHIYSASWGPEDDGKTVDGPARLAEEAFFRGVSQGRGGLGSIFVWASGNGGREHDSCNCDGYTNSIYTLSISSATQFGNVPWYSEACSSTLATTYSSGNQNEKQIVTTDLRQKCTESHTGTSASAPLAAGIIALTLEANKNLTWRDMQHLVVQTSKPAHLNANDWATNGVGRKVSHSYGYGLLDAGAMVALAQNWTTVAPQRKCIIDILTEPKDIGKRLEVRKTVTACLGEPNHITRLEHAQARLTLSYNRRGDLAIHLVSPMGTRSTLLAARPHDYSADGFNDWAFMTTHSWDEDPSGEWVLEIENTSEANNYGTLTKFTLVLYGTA

[1] = biological target: T2, dec-RVKR-CMK-inhibited human furin (Homo sapiens, covalently inhibited by decanoyl-RVKR-chloromethylketone (dec-RVKR-CMK)); assay: crystal structure; furin:RVKR-CMK:Nb14 complex (~9 mg/ml in 10 mM Hepes, pH 7.5, 100 mM NaCl, 2 mM CaCl2) crystallised in 0.1 M sodium acetate, pH 5.6, 16-18% PEG 3350; two copies of the complex in the asymmetric unit; details: both partners purified
T2 construct: furin, human; also called furin:RVKR-CMK; source: purified, complex with Nb14 purified by GPC
T2 chain: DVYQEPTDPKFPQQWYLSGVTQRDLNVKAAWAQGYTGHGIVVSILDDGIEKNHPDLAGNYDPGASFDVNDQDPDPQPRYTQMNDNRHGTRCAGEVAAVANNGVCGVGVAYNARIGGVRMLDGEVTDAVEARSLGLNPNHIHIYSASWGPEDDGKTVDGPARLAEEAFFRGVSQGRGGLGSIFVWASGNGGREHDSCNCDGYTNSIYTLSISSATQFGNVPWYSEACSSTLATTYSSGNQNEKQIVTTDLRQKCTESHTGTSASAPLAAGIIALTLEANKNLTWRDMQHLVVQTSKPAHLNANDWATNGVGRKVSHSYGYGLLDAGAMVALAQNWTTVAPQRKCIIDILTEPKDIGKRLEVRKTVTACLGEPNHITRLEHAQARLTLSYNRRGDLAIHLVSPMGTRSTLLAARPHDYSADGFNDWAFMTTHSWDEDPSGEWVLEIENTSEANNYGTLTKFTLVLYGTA

binding result (human furin, wild type): binds
binding result [1]: binds
B1: inhibitory camelid antibody Nb14 (VHH)
VHH: QVQLQESGGGLVQPGGSLTLSCAASGFTFSSYSMYWVRQAPGKGLEWVSSINRVGSNTDYADSVKGRFTISRDNAKNTLYLQMNSLKSEDTALYYCAVGMYAAPPWRGQGTQVTVSS
notes: they are in the deposited structures PDB 5JMO (complex with furin) and PDB 5JMR (free Nb14); also called nanobody Nb14; source: purification in Supplementary Information
